In patent US20200291104A1 (UCB, published 2020):
Where “and” joins values, the source holds several entries; their conditions need not be identical. Equal values may be shown once. Each block holds one binder with its values, some of them ahead of it.

Legend:
[1] = target: T1, human TNF-alpha (human, UniProt P01375 77-233); test: SPR (Biacore T200); Fab captured by anti-human F(ab')2, human TNF injected at 5 nM
[2] = target: cynomolgus TNF (cynomolgus) (UniProt P79337); test: SPR (Biacore T200); Fab captured by anti-human F(ab')2, cynomolgus TNF injected at 3.125 nM
[3] = target: T1, human TNF-alpha; test: cell-based or functional assay
[4] = target: T1, human TNF-alpha; test: SPR (Biacore T200); IgG captured by anti-mouse IgG-Fc, human TNF injected at 20 nM

T1 sequence (P01375 77-233 limits assumed): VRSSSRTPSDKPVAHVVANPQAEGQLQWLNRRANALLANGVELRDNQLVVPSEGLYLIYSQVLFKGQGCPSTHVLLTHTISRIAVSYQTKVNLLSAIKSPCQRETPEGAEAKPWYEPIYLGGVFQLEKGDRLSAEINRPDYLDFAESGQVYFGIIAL

Kd [1]: 0.0349 nM and 0.035 nM
koff [1]: 0.000143 s⁻¹
kon [1]: 4.09e+06 M⁻¹ s⁻¹
Kd [2]: 0.0274 nM and 0.027 nM
koff [2]: 0.000102 s⁻¹
kon [2]: 3.71e+06 M⁻¹ s⁻¹
B1: 2109 rat/human chimeric Fab (Fab, V domains shown)
VH: EVQLHQSGAALVKPGASVKLSCKTSGYTFTDNYIHWVKQSPGKSLEWIGYINPSSAYAHYNEKFKTKATLTVDKSTNTAYMELSRLTSEDSATYFCTRRYYSAMPFAYWGQGTLVTVSS
VL: DIVMTQSPASLSASLGETVTIECRASEDIYNGLAWYQQKPGKSPHLLIYNSNTLHTGVPSRFSGTGSGTQYSLKINSLQSEDVATYFCQQNYDFPLTFGSGTKLELKR

EC50 (ng/ml), neutralisation in HEK-293-CD40-BLUE reporter assay [3]: 0.31 ng/mL
Kd [4]: 0.025 nM
koff [4]: 0.000119 s⁻¹
kon [4]: 4.7e+06 M⁻¹ s⁻¹
B2: CA2109 IgG (recombinant rat/mouse chimeric IgG1) (antibody, V domains shown)
VH: B1 VH
VL: DIVMTQSPASLSASLGETVTIECRASEDIYNGLAWYQQKPGKSPHLLIYNSNTLHTGVPSRFSGTGSGTQYSLKINSLQSEDVATYFCQQNYDFPLTFGSGTKLELK
